Measured values from patent publication US20240272170A1 (QUANTUM SI, published 2024).
No end group written: not given here. *: point of attachment. FITC = O=C1OC2(c3ccc(O)cc3Oc3cc(O)ccc32)c2ccc(NC(=S)*)cc21

B1: PS1104 (designed binder)
chain: MHSKFSHAGRICGAKFKVGEPIYRCKECSFDDTCVLCVNCFNPKDHRGHHVYTTICTEFNNGICDCGDKEAWNHTLFCKAEEG
notes: PS621 variant
B2: PS1121 (designed binder)
chain: MHSKFSHAGRICGAKFKVGEPIYRCKECSFDDTCVLCVNCFNPKDHKGHHVYTTICTEFNNGICDCGDKEAWNHTLFCKAEEG
notes: PS621 variant
B3: PS1120 (designed binder)
chain: MHSKFSHAGRICGAKFKVGEPIYRCKECSFDDTCVLCVNCFNPKDHTGHHVYTKICTEFNNGICDCGDKEAWNHTLFCKAEEG
notes: Variant of PS621
B4: PS1101 (designed binder)
chain: MHSKFSHAGRICGAKFKVREPIYRCKECSFDDTCVLCVNCFNPKDHTGHHVYTTICTEFNNGICDCGDKEAWNHTLFCKAEEG
notes: Variant of PS621
B5: PS1115 (designed binder)
chain: MHSKFSHAGRICGAKFKVGEPIYRCKECSFDDTCVLCVNCFNPKDHRGHHVYTTICTERNNGICDCGDKEAWNHELFCKAEEG
notes: PS621 variant
B6: PS1105 (designed binder)
chain: MHSKFSHAGRICGAKFKVGEPIYRCKECSFDDTCVLCVNCFNPKDHTRHHVYTTICTEFNNGICDCGDKEAWNHTLFCKAEEG
notes: Variant of PS621
B7: PS1104 (designed binder)
chain: MHSKFSHAGRICGAKFKVGEPIYRCKECSFDDTCVLCVNCFNPKDHRGHHVYTTICTEFNNGICDCGDKEAWNHTLFCKAEEG
notes: Variant of PS621
B8: PS1118 (designed binder)
chain: MHSKFSHAGRICGAKFKVGEPIYRCKECSFDDTCVLCVNCFNPKDHTGHHVYTTICTKFNNGICDCGDKEAWNHTLFCKAEEG
notes: Variant of PS621
B9: PS1103 (designed binder)
chain: MHSKFSHAGRICGAKFKVGEPIYRCKECSFDYTCVLCVNCFNPKDHTGHHVYTTICTEFNNGICDCGDKEAWNHTLFCKAEEG
notes: Variant of PS621
B10: PS1106 (designed binder)
chain: MHSKFSHAGRICGAKFKVGEPIYRCKECSFDDTCVLCVNCFNPKDHTGHHVYVTICTEFNNGICDCGDKEAWNHTLFCKAEEG
notes: PS621 variant
B11: PS1102 (designed binder)
chain: MHSKFSHAGRICGAKFKVGEPIYRCKECQFDDTCVLCVNCFNPKDHTGHHVYTTICTEFNNGICDCGDKEAWNHTLFCKAEEG
notes: Variant of PS621
B12: PS1119 (designed binder)
chain: MHSKFSHAGRICGAKFKVGEPIYRCKECSFDDTCVLCVNCFNPKDHTGHHVYTTICKEFNNGICDCGDKEAWNHTLFCKAEEG
notes: Variant of PS621
B13: PS1107 (designed binder)
chain: MHSKFSHAGRICGAKFKVGEPIYRCKECSFDDTCVLCVNCFNPKDHTGHHVYTTICREFNNGICDCGDKEAWNHTLFCKAEEG
notes: Variant of PS621
B14: PS1114 (designed binder)
chain: MHSKFSHAGRICGAKFKVGEPIYRCKECSFDDTCVLCVNCFNPKDHRGHHVYTTICTERNNGICDCGDKEAWNHTLFCKAEEG
notes: PS621 variant
B15: PS769 (designed binder)
chain: MPTAASATESAIEDTPAPARPEVDGRTKPKRQPRYHVVLWDDDDHTYQYVVVMLQSLFGHPPERGYRLAKEVDTQGRVIVLTTTREHAELKRDQIHAFGYDRLLARSKGSMKASIEAEE
notes: Variant of PS557; also called N41D
B16: PS960 (designed binder)
chain: MPTAASATESAIEDTPAPARPEVDGRTKPKRQPRYHVVLWDDDDHTYQYVVVMLRSLFGIPPERGYRLAKEMDTQGRVIVLTTTREHAELKRDQIHAFGYDRLLARSKGSMKASIEAEE
notes: Variant of PS557
B17: PS816 (designed binder)
chain: MPTAASATESAIEDTPAPARPEVDGRTKPKRQPRYHVVLWDDDDHTYQYVVVMLQSLFGHPPERGYRLAKEMDTQGRVIVLTTTREHAELKRDQIHAFGYDRLLARSKGSMKASIEAEE
notes: Variant of PS557; also called N41D, V72M
B18: PS962 (designed binder)
chain: MPTAASATESAIEDTPAPARPEVDGRTKPKRQPRYHVVLWDDDDHTYQYVVVMLRSLFGHPYARGYRLAKEMDTQGRVIVLTTTREHAELKRDQIHAFGRDRLLARSKGSMKASIEAEE
notes: Variant of PS557
B19: PS968 (designed binder)
chain: MPTAASATESAIEDTPAPARPEVDGRTKPKRQPRYHVVLWNDDDHTYQYVVVMLRSLFGHPPERGYRLAKEMDTQGRVIVLTTTREHAELKRDQIHAFGRDRLLARSKGSMKASIEAEE
notes: Variant of PS557; also called V72M, Q55R, Y100R
B20: PS934 (designed binder)
chain: MPTAASATESAIEDTPAPARPEVDGRTKPKRQPRYHVVLWDDDDHTYQYVVVMLQSLFGHPRERGYRMAKEMDTQGRVIVLTTTREHAELKRDQIHAFGYDRLLARSKGSMKASIEAEE
notes: Variant of PS557; also called N41D, V72M, L68M, P62R

Experiments:
[1] = target: T1, RA peptide (XAKLDEESILKQK-FITC, X = R); assay: fluorescence polarization titration, 20 C
T1 construct: also called peptide with N-terminal arginine
T1 peptide: RAKLDEESILKQK(FITC)
Description: (§1) Binding affinity was measured by polarization using a labeled peptide. The polarization response and total intensity measurements were carried out at 20° C. on a microplate fluorometer with 480 nm excitation and 530 nm emission. […] Multiple analyses were performed at increasing recognizer concentration at a fixed concentration of a target peptide to obtain a titration curve. An equilibrium polarization response at each concentration was plotted and fit to calculate the KD.
(§2) Fluorescence polarization assays were performed with all candidates, and single point binding responses were measured at a fixed concentration of the binders (FIG. 13A). […] We carried out multiple polarization binding titration analysis at increasing concentration of binder protein, and the Kds were determined from the titration curves (FIG. 13B).

[2] = target: T2, HA peptide (XAKLDEESILKQK-FITC, X = H); assay: fluorescence polarization titration, 20 C
T2 construct: also called peptide with N-terminal histidine
T2 peptide: HAKLDEESILKQK(FITC)
Description: as §1, §2

[3] = target: T3, RA peptide (Octet assay of PS621 variants); assay: Octet (BLI), 30 C
T3 construct: X… with X = R
Description: (§3) Peptides of the sequence RXKLDEESILKQK (SEQ ID NO: 1076) were also used to evaluate the penultimate residue effect.

[4] = target: T4, RL peptide (Octet assay of PS621 variants); assay: Octet (BLI), 30 C
T4 construct: RXKLDEESILKQK with X = L
T4 peptide: RLKLDEESILKQK
Description: as §3

[5] = target: T5, RE peptide (Octet assay of PS621 variants); assay: Octet (BLI), 30 C
T5 construct: RXKLDEESILKQK with X = E
T5 peptide: REKLDEESILKQK
Description: as §3

[6] = target: T6, RQ peptide (Octet assay of PS621 variants); assay: Octet (BLI), 30 C
T6 construct: RX… with X = Q
Description: as §3

[7] = target: T7, RS peptide (Octet assay of PS621 variants); assay: Octet (BLI), 30 C
T7 construct: RXKLDEESILKQK with X = S
T7 peptide: RSKLDEESILKQK
Description: as §3

[8] = target: T8, RR peptide (Octet assay of PS621 variants); assay: Octet (BLI), 30 C
T8 construct: RX… with X = R
Description: as §3

[9] = target: T9, RF peptide (Octet assay of PS621 variants); assay: Octet (BLI), 30 C
T9 construct: RX… with X = F
Description: as §3

[10] = target: T10, HA peptide (Octet assay of PS621 variants); assay: Octet (BLI), 30 C
T10 construct: XAKLDEESILKQK with X = H
T10 peptide: HAKLDEESILKQK

[11] = target: T11, KA peptide (Octet assay of PS621 variants); assay: Octet (BLI), 30 C
T11 construct: XAKLDEESILKQK with X = K
T11 peptide: KAKLDEESILKQK

[12] = target: VA Peptide (fluorescence polarization) (FITC on the C-terminal lysine); assay: fluorescence polarization, FITC peptide titrated with protein
[13] = target: T12, AA Peptide (fluorescence polarization), AAKLDEESILKQ{LYS(FITC)}; assay: as above
T12 peptide: AAKLDEESILKQK(FITC)

[14] = target: T13, AA peptide (Octet assay of PS557 variants); assay: Octet (BLI), peptide on sensor, response after 200 s association
T13 construct: Peptide coated on the Octet sensor
Description: (§4) In the high-throughput assay, Octet sensors are coated with the peptide of interest and dipped in buffer containing the purified protein. […] Studying the on and off-rate can also give insight into the mechanism of binding.

[15] = target: T14, VA peptide (Octet assay of PS557 variants); assay: as above
T14 construct: Peptide coated on the Octet sensor
Description: as §4

[16] = target: T15, LA peptide (Octet assay of PS557 variants); assay: as above
T15 construct: Peptide coated on the Octet sensor
Description: as §4

[17] = target: T16, MA peptide (Octet assay of PS557 variants); assay: as above
T16 construct: Peptide coated on the Octet sensor
Description: as §4

[18] = target: T17, IA peptide (Octet assay of PS557 variants); assay: as above
T17 construct: Peptide coated on the Octet sensor
Description: as §4

[19] = target: T18, FA peptide (Octet assay of PS557 variants); assay: as above
T18 construct: Peptide coated on the Octet sensor
Description: as §4

[20] = target: T19, MA Peptide (fluorescence polarization); assay: fluorescence polarization, FITC peptide titrated with protein
T19 peptide: MAKLDEESILKQK(FITC)

Row | Binder | Kd [1] | Kd [2] | Octet response [3] | Octet response [4] | Octet response [10] | Octet response [11] | further results
1 | B1 | 260 nM | 2850 nM |  |  |  |  | 
2 | B2 | 259 nM | 3500 nM |  |  |  |  | 
3 | B3 |  |  | 9.9 | 11.7 | 1.7 | 5.5 | Octet response [5]: 8.8; Octet response [6]: 9.5; Octet response [7]: 8.3; Octet response [8]: 5.9; Octet response [9]: 10.2
4 | B4 | 1550 nM |  | 6.5 | 7.7 |  | 1.4 | Octet response [5]: 1.9; Octet response [6]: 4.7; Octet response [7]: 4.3; Octet response [8]: 2.8; Octet response [9]: 6
5 | B5 | 152 nM | 1920 nM |  |  |  |  | 
6 | B6 |  |  | 6.5 | 7.5 | 0.2 | 2.6 | Octet response [5]: 2.9; Octet response [6]: 5.9; Octet response [7]: 5.5; Octet response [8]: 4.4; Octet response [9]: 7.2
7 | B7 |  |  | 9.4 | 11.3 | 3.4 | 7.3 | Octet response [5]: 7.6; Octet response [6]: 9.7; Octet response [7]: 8.9; Octet response [8]: 8; Octet response [9]: 10.5
8 | B8 | 271 nM | 6180 nM | 9.8 | 10.6 | 1.8 | 5 | 
9 | B9 | 787 nM |  | 6.2 | 8.4 |  | 2.9 | 
10 | B10 | 165 nM | 3440 nM |  |  |  |  | 
11 | B11 | 638 nM |  | 8.6 | 10.4 | 2.5 | 6.6 | Octet response [5]: 6.6; Octet response [6]: 9.3; Octet response [7]: 8.5; Octet response [8]: 7; Octet response [9]: 9.3
12 | B12 | 289 nM | 11400 nM | 8.6 | 9.6 | 0.7 | 3.3 | 
13 | B13 | 298 nM | 3830 nM | 7.8 | 8.1 | 0.6 | 3.9 | 
14 | B14 | 180 nM | 2660 nM |  |  |  |  | 
15 | B15 |  |  |  |  |  |  | Kd [12]: 276 nM; Kd [13]: 8700 nM
16 | B16 |  |  |  |  |  |  | Octet response [14]: 1.68 nm; Octet response [15]: 9.29 nm; Octet response [16]: 10.5 nm; Octet response [17]: 6.86 nm; Octet response [18]: 9.98 nm; Octet response [19]: 0.0851 nm
17 | B17 |  |  |  |  |  |  | Kd [12]: 266 nM; Kd [13]: 7590 nM; Kd [20]: 805 nM
18 | B18 |  |  |  |  |  |  | Octet response [14]: 3.76 nm; Octet response [15]: 10.7 nm; Octet response [16]: 10.5 nm; Octet response [17]: 8.37 nm; Octet response [18]: 10.7 nm; Octet response [19]: 2.57 nm
19 | B19 |  |  |  |  |  |  | Kd [13]: 5440 nM; Kd [20]: 395 nM
20 | B20 |  |  |  |  |  |  | Kd [13]: 5330 nM; Kd [20]: 325 nM
